Earlier results as cited in PMC4327442.

Target: IL-18 (Homo sapiens) (UniProt Q14116)
Sequence (Q14116 37-193): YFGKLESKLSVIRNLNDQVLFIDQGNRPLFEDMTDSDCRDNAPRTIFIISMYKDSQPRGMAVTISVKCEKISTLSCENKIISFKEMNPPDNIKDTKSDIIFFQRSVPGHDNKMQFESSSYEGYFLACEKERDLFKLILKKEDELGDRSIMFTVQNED

IL-18BP, sequence (O95998 31-194): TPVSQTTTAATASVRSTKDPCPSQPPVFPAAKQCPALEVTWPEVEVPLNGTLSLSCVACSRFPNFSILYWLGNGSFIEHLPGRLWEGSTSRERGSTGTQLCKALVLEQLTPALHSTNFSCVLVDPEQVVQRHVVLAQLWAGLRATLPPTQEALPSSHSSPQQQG

In the case of IL-18BP (from UniProt O95998), the Kd is listed as 0.399 nM.
